Experimental data reported in publication doi:10.1101/2021.02.18.431813 (bioRxiv, 2021).

Legend:
Test in all cases: PIE-FCCS
[1] = molecular target: the molecule itself
[2] = molecular target: Plexin A4 (human, UniProt Q9HCM2 24-1894)
[3] = molecular target: T1, Plexin A4ΔSema (human, UniProt Q9HCM2 24-1894, deletes residues 39-506)
T1 sequence (looked up): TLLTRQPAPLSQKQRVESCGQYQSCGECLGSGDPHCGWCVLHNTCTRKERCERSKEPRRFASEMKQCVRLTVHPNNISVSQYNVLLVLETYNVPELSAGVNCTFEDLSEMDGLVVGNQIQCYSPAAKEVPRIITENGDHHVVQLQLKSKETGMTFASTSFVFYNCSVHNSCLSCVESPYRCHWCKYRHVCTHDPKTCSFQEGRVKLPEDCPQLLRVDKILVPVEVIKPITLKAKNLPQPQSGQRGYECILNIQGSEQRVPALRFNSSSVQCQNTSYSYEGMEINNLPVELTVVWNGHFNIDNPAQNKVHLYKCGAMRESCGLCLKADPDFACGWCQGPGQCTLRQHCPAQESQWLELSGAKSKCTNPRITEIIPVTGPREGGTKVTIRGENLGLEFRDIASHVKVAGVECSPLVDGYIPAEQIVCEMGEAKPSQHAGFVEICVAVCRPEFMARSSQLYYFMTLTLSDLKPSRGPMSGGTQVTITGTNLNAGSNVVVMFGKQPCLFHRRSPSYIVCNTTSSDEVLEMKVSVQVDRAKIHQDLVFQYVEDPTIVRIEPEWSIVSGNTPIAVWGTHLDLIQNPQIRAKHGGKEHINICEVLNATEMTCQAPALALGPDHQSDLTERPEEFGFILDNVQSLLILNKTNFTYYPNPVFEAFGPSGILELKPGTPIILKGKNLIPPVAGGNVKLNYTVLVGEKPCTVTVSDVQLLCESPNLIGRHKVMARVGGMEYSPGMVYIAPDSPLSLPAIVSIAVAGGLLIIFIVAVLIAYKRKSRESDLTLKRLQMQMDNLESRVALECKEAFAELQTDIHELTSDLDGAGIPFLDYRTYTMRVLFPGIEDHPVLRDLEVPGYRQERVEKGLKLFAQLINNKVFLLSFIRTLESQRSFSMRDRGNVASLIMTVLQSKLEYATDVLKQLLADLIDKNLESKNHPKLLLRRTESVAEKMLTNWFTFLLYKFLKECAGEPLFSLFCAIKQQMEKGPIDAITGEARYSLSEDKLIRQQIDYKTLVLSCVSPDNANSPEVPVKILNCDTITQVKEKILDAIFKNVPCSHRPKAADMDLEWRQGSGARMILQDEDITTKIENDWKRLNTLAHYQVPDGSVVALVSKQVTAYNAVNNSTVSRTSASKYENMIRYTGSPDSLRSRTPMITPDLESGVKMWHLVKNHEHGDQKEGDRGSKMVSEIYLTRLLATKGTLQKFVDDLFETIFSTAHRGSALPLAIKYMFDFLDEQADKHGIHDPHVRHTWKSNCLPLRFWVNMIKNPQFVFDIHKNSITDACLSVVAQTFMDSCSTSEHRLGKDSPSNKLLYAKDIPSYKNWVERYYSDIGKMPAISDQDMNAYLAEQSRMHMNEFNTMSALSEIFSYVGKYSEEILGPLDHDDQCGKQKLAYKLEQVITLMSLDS

- median fraction correlated (fc) [2]: 0.08
- median fraction correlated (fc) [3]: 0.23
B1: Plexin A2 (receptor, human, UniProt O75051 35-1894, looked up)
chain: MPQFSTFHSENRDWTFNHLTVHQGTGAVYVGAINRVYKLTGNLTIQVAHKTGPEEDNKSCYPPLIVQPCSEVLTLTNNVNKLLIIDYSENRLLACGSLYQGVCKLLRLDDLFILVEPSHKKEHYLSSVNKTGTMYGVIVRSEGEDGKLFIGTAVDGKQDYFPTLSSRKLPRDPESSAMLDYELHSDFVSSLIKIPSDTLALVSHFDIFYIYGFASGGFVYFLTVQPETPEGVAINSAGDLFYTSRIVRLCKDDPKFHSYVSLPFGCTRAGVEYRLLQAAYLAKPGDSLAQAFNITSQDDVLFAIFSKGQKQYHHPPDDSALCAFPIRAINLQIKERLQSCYQGEGNLELNWLLGKDVQCTKAPVPIDDNFCGLDINQPLGGSTPVEGLTLYTTSRDRMTSVASYVYNGYSVVFVGTKSGKLKKIRADGPPHGGVQYEMVSVLKDGSPILRDMAFSIDQRYLYVMSERQVTRVPVESCEQYTTCGECLSSGDPHCGWCALHNMCSRRDKCQQAWEPNRFAASISQCVSLAVHPSSISVSEHSRLLSLVVSDAPDLSAGIACAFGNLTEVEGQVSGSQVICISPGPKDVPVIPLDQDWFGLELQLRSKETGKIFVSTEFKFYNCSAHQLCLSCVNSAFRCHWCKYRNLCTHDPTTCSFQEGRINISEDCPQLVPTEEILIPVGEVKPITLKARNLPQPQSGQRGYECVLNIQGAIHRVPALRFNSSSVQCQNSSYQYDGMDISNLAVDFAVVWNGNFIIDNPQDLKVHLYKCAAQRESCGLCLKADRKFECGWCSGERRCTLHQHCTSPSSPWLDWSSHNVKCSNPQITEILTVSGPPEGGTRVTIHGVNLGLDFSEIAHHVQVAGVPCTPLPGEYIIAEQIVCEMGHALVGTTSGPVRLCIGECKPEFMTKSHQQYTFVNPSVLSLNPIRGPESGGTMVTITGHYLGAGSSVAVYLGNQTCEFYGRSMSEIVCVSPPSSNGLGPVPVSVSVDRAHVDSNLQFEYIDDPRVQRIEPEWSIASGHTPLTITGFNLDVIQEPRIRVKFNGKESVNVCKVVNTTTLTCLAPSLTTDYRPGLDTVERPDEFGFVFNNVQSLLIYNDTKFIYYPNPTFELLSPTGVLDQKPGSPIILKGKNLCPPASGGAKLNYTVLIGETPCAVTVSETQLLCEPPNLTGQHKVMVHVGGMVFSPGSVSVISDSLLTLPAIVSIAAGGSLLLIIVIIVLIAYKRKSRENDLTLKRLQMQMDNLESRVALECKEAFAELQTDINELTSDLDRSGIPYLDYRTYAMRVLFPGIEDHPVLRELEVQGNGQQHVEKALKLFAQLINNKVFLLTFIRTLELQRSFSMRDRGNVASLIMTGLQGRLEYATDVLKQLLSDLIDKNLENKNHPKLLLRRTESVAEKMLTNWFAFLLHKFLKECAGEPLFMLYCAIKQQMEKGPIDAITGEARYSLSEDKLIRQQIEYKTLILNCVNPDNENSPEIPVKVLNCDTITQVKEKILDAVYKNVPYSQRPRAVDMDLEWRQGRIARVVLQDEDITTKIEGDWKRLNTLMHYQVSDRSVVALVPKQTSSYNIPASASISRTSISRYDSSFRYTGSPDSLRSRAPMITPDLESGVKVWHLVKNHDHGDQKEGDRGSKMVSEIYLTRLLATKGTLQKFVDDLFETLFSTVHRGSALPLAIKYMFDFLDEQADRHSIHDTDVRHTWKSNCLPLRFWVNVIKNPQFVFDIHKGSITDACLSVVAQTFMDSCSTSEHRLGKDSPSNKLLYAKDIPSYKSWVERYYADIAKLPAISDQDMNAYLAEQSRLHAVEFNMLSALNEIYSYVSKYSEELIGALEQDEQARRQRLAYKVEQLINAMSIES
- median fraction correlated (fc) [1]: 0.09
- stoichiometry N [1]: 2
